# Assay results reported in publication PMC314469, “Protein Interaction Networks by Proteome Peptide Scanning” (PLoS Biology, 2004).
# Target: T1, Abp1 SH3 (ABP1_YEAST), P15891
# T1 chain: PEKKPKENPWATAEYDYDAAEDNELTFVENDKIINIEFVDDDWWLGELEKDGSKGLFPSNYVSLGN
# Assay: SPOT array
row,Binder,"normalised SPOT signal, Boehringer light units (BLU); mean over the file's lines of this peptide"
1,ATTNDDKKTEPDKP [YJL041W 183-196],63.8
2,ASSSPFIPKKRKP [YLR430W 2217-2229],2110
3,ALWEVGSGGDPTKP [YEL056W 186-199],80.3
4,ARTGYETPVKVRP [YCL055W 274-286],342
5,SINNSEVPTNDKP [YPR068C 139-151],72.1
6,SEMFRDLPESKKP [YOR175C 203-215],86.3
7,AMLEEQVKSNPNRP [YGR234W 289-302],0
8,ASQPEPTTNEPAKP [YJL041W 251-264],114
9,ASSFQLPPGVKKP [YPL019C 671-683],143
10,ASLRAGLPTVIKP [YLR189C 1077-1089],78.3
11,ASNFVQRPVISKP [YDL145C 797-809],2410
12,ASLFPRDPKRLRP [YLL018C 545-557],1990
13,ALNDSMFFPYPFKP [YGL131C 433-446],138
14,AISIFDMNLSPIKP [YKL108W 91-104],40.2
15,ATKVDATPEESKP [YLR335W 584-596],103
16,ATLDGKLKHIPRRP [YEL007W 23-36],630
17,ASTLGITPADSKP [YMR016C 645-657],93.1
18,AQVVLIPAGVPRKP [YDL078C 69-82],53.3
19,AKSTRSSPQKAKP [YBR203W 447-459],88.6
20,ASIVVIPAGVPRKP [YOL126C 141-154],199

row,Binder,"normalised SPOT signal, Boehringer light units (BLU); mean over the file's lines of this peptide"
1,APKKWKAPKGPKP [YGL099W 6-18],332
2,SDTDTLPEAPPAKP [YOR066W 218-231],108
3,APIIGSPRHAPSRP [YOL138C 1118-1131],8310
4,SFTAYSSPKKNKP [YPL100W 257-269],324
5,ALKDFHSTLDPSKP [YOR251C 241-254],91.9
6,AYNLNVPPPKKRP [YHR009C 132-144],1510
7,SASILLLEALPKKP [YDR135C 180-193],112
8,SFKIFPLPKDGKP [YOR056C 307-319],102
9,AVLLIKKNKLPPRP [YLR281C 14-27],9430
10,ATTEFETPELFKP [YIL031W 418-430],78.7
11,SAKPMNIPEVLKP [YLR077W 535-547],144
12,ALKQKKIPPPFKP [YHR205W 678-690],5260
13,SHTKNTHPDFSKP [YLR374C 54-66],39.3
14,AKDPIRTPDAKKP [YLR226W 381-393],328
15,ANSVPIMPTLPPRP [YGL060W 533-546],112
16,AIRKENLPNLEKP [YDR150W 1608-1620],72.3
17,ALPLPAVFSAPIRP [YBR031W 19-32],49.7
18,ASKLVEQHMAPPKP [YPL085W 1841-1854],122
19,ALPTGAPPTTPSRP [YGR170W 87-100],92.1
20,APEIINDLNHPEKP [YEL070W 157-170],86

row,Binder,"normalised SPOT signal, Boehringer light units (BLU); mean over the file's lines of this peptide"
1,SKVDDLIPLASRP [YGL044C 219-231],111
2,ATFETKFLVVPFKP [YDR200C 169-182],74
3,ASSAELRPLLERP [YDL129W 167-179],78.5
4,ASSKLKKPPKAKP [YML059C 513-525],2150
5,APIPESPANSPTRP [YMR115W 51-64],190
6,ASTYGRSPSGFRP [YKR089C 707-719],517
7,ANVQNVIPDDSKP [YDR331W 298-310],35.4
8,ALDGSSKPFKVKP [YLR392C 95-107],223
9,AQLLNPNRRAPRRP [YJL128C 177-190],364
10,SGVLITDKEYPVRP [YKL196C 76-89],56
11,AKKEFDEKLPPKKP [YMR072W 106-119],87.3
12,AWYISYGEWGPRRP [YIL111W 69-82],78.4
13,AQKDSSVVSEPKKP [YOR098C 642-655],99.8
14,ALFGFRDPNGIRP [YMR300C 181-193],102
15,APLNLDNPSSERP [YPL012W 496-508],103
16,ATSIGNSPVTAKP [YAR033W 173-185],71
17,ANISTSDPDFYKP [YDR406W 122-134],99.2
18,ASSKMGAPWSVKP [YGL133W 239-251],146
19,AMIAHLSPHNARP [YJR124C 130-142],464
